Laboratory results reported in patent US20090311283A1.

Experiments:
HLA-A*0301 (Human) [1] = assay: competition with 125I-labelled probe peptide for purified HLA, gel filtration; relative to standard peptide; settings: remark: other sources report otherwise
HLA-A*6802 (Human) [2] = settings: remark: other sources report otherwise
[3] = target: T1, HLA-DR4w15 (DRB1*0405) (human); assay: 125I-probe competition on purified DR4w15; ratio vs standard 717.01 (IC50 38 nM)
T1 chain 1: not shown
T1 chain 2: not shown

HLA-A*03 (human) = assay: competitive inhibition of 125I-labelled probe peptide binding to purified HLA, gel filtration; settings: remark: other sources report otherwise
[4] = target: HLA-DR6w19 (DRB1*1302) (human); settings: remark: other sources report otherwise
[5] = target: HLA-DR2w2β2 (DRB5*0101) (human)
[6] = target: HLA-DR7 (DRB1*0701) (human); settings: remark: other sources report otherwise
[7] = target: HLA-DR9 (DRB1*0901) (human); settings: remark: other sources report otherwise
[8] = target: HLA-DR8w2 (DRB1*0802) (human); settings: remark: other sources report otherwise
[9] = target: T2, HLA-DR2w2β1 (DRB1*1501) (human); assay: 125I-probe competition on purified DR2w2β1; ratio vs standard 507.02 (IC50 […]); settings: remark: other sources report otherwise
T2 chain 1: not shown
T2 chain 2: not shown

HLA-A*0203 (Human) = settings: remark: other sources report otherwise
HLA-A*6802 (Human) [10] = settings: remark: other sources report otherwise; remark: listed apart in the source
HLA-A*0201 (Human) = settings: remark: other sources report otherwise
HLA-B*5401 (human) = assay: competition with 125I-labelled probe peptide for purified HLA, gel filtration
HLA-B*3501 (human) = assay: as above
HLA-B*0702 (human) = assay: as above
HLA-B*5301 (human) = assay: as above
HLA-A*0301 (human) [11] = assay: competition with 125I-labelled probe peptide for purified HLA-A*0301, gel filtration; relative binding; settings: scale: ratio
HLA-DRB1*0101 (human) = target: T3, HLA-DRB1*0101 (human); assay: inhibition of 125I-labelled probe peptide binding to purified HLA-DR; gel filtration; settings: remark: other sources report otherwise
T3 chain 1: not shown
T3 chain 2: not shown

HLA-DRB5*0101 (human) = target: T4, HLA-DRB5*0101 (human); assay: as above; settings: remark: other sources report otherwise
T4 chain 1: not shown
T4 chain 2: not shown

HLA-DRB1*1101 (human) = target: T5, HLA-DRB1*1101 (human); assay: as above; settings: remark: other sources report otherwise
T5 chain 1: not shown
T5 chain 2: not shown

HLA-DRB1*0802 (human) = target: T6, HLA-DRB1*0802 (human); assay: as above; settings: remark: other sources report otherwise
T6 chain 1: not shown
T6 chain 2: not shown

HLA-DRB1*1501 (human) = target: T7, HLA-DRB1*1501 (human); assay: as above; settings: remark: other sources report otherwise
T7 chain 1: not shown
T7 chain 2: not shown

HLA-DRB1*0901 (human) = target: T8, HLA-DRB1*0901 (human); assay: as above; settings: remark: other sources report otherwise
T8 chain 1: not shown
T8 chain 2: not shown

HLA-DRB1*0405 (human) = target: T9, HLA-DRB1*0405 (human); assay: as above; settings: remark: other sources report otherwise
T9 chain 1: not shown
T9 chain 2: not shown

HLA-DRB1*0401 (human) = target: T10, HLA-DRB1*0401 (human); assay: as above; settings: remark: other sources report otherwise
T10 chain 1: not shown
T10 chain 2: not shown

HLA-DRB1*1302 (human) = target: T11, HLA-DRB1*1302 (human); assay: as above; settings: remark: other sources report otherwise
T11 chain 1: not shown
T11 chain 2: not shown

HLA-A*6801 (human) = assay: inhibition of 125I-labelled probe peptide binding to purified HLA, gel filtration; settings: remark: other sources report otherwise

ILRGTSFVY (modifications not checked) [HBV POL 760 …] was tested, and the binding affinity ratio (IC50 of standard peptide / IC50 of test peptide) (HLA-A*0301 (Human) [1]) was 0.044.

With ILSTLPETTV (modifications not checked) [peptide 1069.14] the IC50 (HLA-A*6802 (Human) [2]) was 5.97 µM.

With CQVFADATPTGWGLA (modifications not checked) the binding affinity ratio (standard IC50 / test IC50) [3] was 0.28.

ILRGTSFVY (modifications not checked) [HBV POL 771 peptide 1.0205 (…)] showed an IC50 (HLA-A*03 (human)) of 0.25 µM.

VGNFTGLYSSTVPVF (modifications not checked) showed a binding affinity ratio (standard IC50 / test IC50) [4] of 0.058, a binding affinity ratio (standard IC50 / test IC50) [5] of 0.0016 and a binding affinity ratio (standard IC50 / test IC50) [6] of 0.58. The binding affinity ratio (standard IC50 / test IC50) [7] was 0.31, the binding affinity ratio (standard IC50 / test IC50) [8] was 0.0044 and the binding affinity ratio (standard IC50 / test IC50) [9] was 0.01.

Work on FTFSPTYKA (modifications not checked) [HBV POL 656 …] yielded a binding affinity ratio (IC50 of standard peptide / IC50 of test peptide) (HLA-A*0203 (Human)) of 0.0031, a binding affinity ratio (IC50 of standard peptide / IC50 of test peptide) (HLA-A*6802 (Human) [10]) of 7.3 and a binding affinity ratio (IC50 of standard peptide / IC50 of test peptide) (HLA-A*0201 (Human)) of 0.0056.

IPWTHKVGNF (modifications not checked) [HBV POL 50 …] showed a binding affinity ratio (IC50 standard peptide / IC50 test peptide) (HLA-B*5401 (human)) of 0.0002, a binding affinity ratio (IC50 standard peptide / IC50 test peptide) (HLA-B*3501 (human)) of 0.0001 and a binding affinity ratio (IC50 standard peptide / IC50 test peptide) (HLA-B*0702 (human)) of 0.0013. The binding affinity ratio (IC50 standard peptide / IC50 test peptide) (HLA-B*5301 (human)) was 0.0001.

In the case of FLLVLLDY (modifications not checked) [HBV ENV 256 FLLVLLDY], the binding affinity ratio (relative to the standard peptide) (HLA-A*0301 (human) [11]) is reported as 0.005.

With GFFLLTRILTIPQSL (modifications not checked) [… (HBV ENV 181, 15-mer)] the binding affinity ratio (IC50 of standard peptide / IC50 of test peptide) (HLA-DRB1*0101 (human)) was 0.43, the binding affinity ratio (IC50 of standard peptide / IC50 of test peptide) (HLA-DRB5*0101 (human)) was 0.011 and the binding affinity ratio (IC50 of standard peptide / IC50 of test peptide) (HLA-DRB1*1101 (human)) was 2.3. For the same binder, the binding affinity ratio (IC50 of standard peptide / IC50 of test peptide) (HLA-DRB1*0802 (human)) was 1.6, the binding affinity ratio (IC50 of standard peptide / IC50 of test peptide) (HLA-DRB1*1501 (human)) was 0.015 and the binding affinity ratio (IC50 of standard peptide / IC50 of test peptide) (HLA-DRB1*0901 (human)) was 0.55. It also gave a binding affinity ratio (IC50 of standard peptide / IC50 of test peptide) (HLA-DRB1*0405 (human)) of 0.45, a binding affinity ratio (IC50 of standard peptide / IC50 of test peptide) (HLA-DRB1*0401 (human)) of 3.1 and a binding affinity ratio (IC50 of standard peptide / IC50 of test peptide) (HLA-DRB1*1302 (human)) of 0.078.

VSIPWTHK (modifications not checked) [HBV POL 50 peptide 26.0024 (VSIPWTHK)] showed an IC50 (HLA-A*6801 (human)) of 20 µM.
